Test results published in patent US20140120095A1 (Boehringer Ingelheim, published 2014).

Assays:
[1] = target: T1, mouse DLL4 overexpressed on cells (mouse, UniProt Q9JI71 27-686); assay: FMAT, labelled hNotch1-Fc on CHO-mDLL4, periplasmic extract
T1 construct: whole, on cells; also called CHO-mDLL4; CHO-mDII4
Excerpt: (§1) All calculations are based on the FL1_total signal which comprises the average of the fluorescence per well times the number of counts per well.

[2] = target: T2, human DLL4 overexpressed on cells (human, UniProt Q9NR61 27-685); assay: FMAT, labelled hNotch1-Fc on CHO-hDLL4, periplasmic extract
T2 construct: full length human DLL4 on CHO or HEK293 cells; also called CHO-hDLL4; CHO-hDII4
Excerpt: as §1

[3] = target: T3, recombinant mouse DLL4 (C-terminally His-tagged extracellular domain, R&D Systems) (mouse, UniProt Q9JI71 27-532); assay: ProteOn off-rate screen, periplasmic extract, coated mouse DLL4
T3 construct: extracellular domain; also called rmDLL4; mDLL4
T3 sequence (Q9JI71 27-532): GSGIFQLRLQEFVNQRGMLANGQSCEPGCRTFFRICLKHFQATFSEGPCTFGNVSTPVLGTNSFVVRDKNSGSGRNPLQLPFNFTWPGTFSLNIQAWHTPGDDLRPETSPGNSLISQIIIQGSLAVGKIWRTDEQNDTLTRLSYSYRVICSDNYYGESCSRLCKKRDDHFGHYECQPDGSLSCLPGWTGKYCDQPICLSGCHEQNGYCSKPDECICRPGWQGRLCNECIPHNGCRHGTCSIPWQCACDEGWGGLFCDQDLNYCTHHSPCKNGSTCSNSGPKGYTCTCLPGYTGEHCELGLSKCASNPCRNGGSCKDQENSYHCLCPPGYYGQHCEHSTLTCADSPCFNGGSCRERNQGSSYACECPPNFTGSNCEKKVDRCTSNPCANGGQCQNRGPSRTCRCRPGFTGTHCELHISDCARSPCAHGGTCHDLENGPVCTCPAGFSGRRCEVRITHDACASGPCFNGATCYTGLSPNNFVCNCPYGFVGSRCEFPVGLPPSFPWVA
Method: (§2) In a first cycle, amino acid substitutions are introduced randomly in both framework (FW) and complementary determining regions (CDR) using the error-prone PCR method. […] After a polish step, PCR products are inserted via unique restriction sites into a vector designed to facilitate phage display of the VHH library. Consecutive rounds of in-solution selections are performed using decreasing concentrations of biotinylated recombinant human DLL4 (biot-rhDLL4) and trypsin elutions. Affinity-driven selections in a third round using cold rhDLL4 (at least 100× excess over biot-rhDLL4) are also performed. No selections on murine DLL4 are included as (conservation of) cross-reactivity is assessed at the screening level. Individual mutants are produced as recombinant protein using an expression vector derived from pUC119, which contains the LacZ promoter, a resistance gene for ampicillin, a multiple cloning site and an ompA leader sequence (pAX50). E. coliTG1 cells are transformed with the expression vector library and plated on agar plates (LB+Amp+2% glucose). Single colonies are picked from the agar plates and grown in 1 mL 96-deep-well plates. VHH expression is induced by adding IPTG (1 mM). Periplasmic extracts (in a volume of ˜80 uL) are prepared according to standard methods and screened for binding to recombinant human and mouse DII4 in a ProteOn (BioRad, Hercules, Calif., USA) off-rate assay. In brief, a GLC ProteOn Sensor chip is coated with recombinant human DII4 on the “ligand channels” L2 and L4 (with L1/L3 as reference channel), while “ligand channels” […] is coated with mouse DII4. Periplasmic extract of affinity-matured clones is diluted 1/10 and injected across the “analyte channels” A1-A6. An average off-rate is calculated of the wild type clones present in the plate and served as a reference to calculate off-rate improvements.

[4] = target: T4, recombinant human DLL4 (C-terminally His-tagged extracellular domain, R&D Systems) (human, UniProt Q9NR61 25-522, biotinylated in the competition ELISA); assay: ProteOn off-rate screen, periplasmic extract, coated human DLL4
T4 construct: also called rhDLL4; hDLL4
Method: as §2

T1 sequence (Q9JI71 27-686): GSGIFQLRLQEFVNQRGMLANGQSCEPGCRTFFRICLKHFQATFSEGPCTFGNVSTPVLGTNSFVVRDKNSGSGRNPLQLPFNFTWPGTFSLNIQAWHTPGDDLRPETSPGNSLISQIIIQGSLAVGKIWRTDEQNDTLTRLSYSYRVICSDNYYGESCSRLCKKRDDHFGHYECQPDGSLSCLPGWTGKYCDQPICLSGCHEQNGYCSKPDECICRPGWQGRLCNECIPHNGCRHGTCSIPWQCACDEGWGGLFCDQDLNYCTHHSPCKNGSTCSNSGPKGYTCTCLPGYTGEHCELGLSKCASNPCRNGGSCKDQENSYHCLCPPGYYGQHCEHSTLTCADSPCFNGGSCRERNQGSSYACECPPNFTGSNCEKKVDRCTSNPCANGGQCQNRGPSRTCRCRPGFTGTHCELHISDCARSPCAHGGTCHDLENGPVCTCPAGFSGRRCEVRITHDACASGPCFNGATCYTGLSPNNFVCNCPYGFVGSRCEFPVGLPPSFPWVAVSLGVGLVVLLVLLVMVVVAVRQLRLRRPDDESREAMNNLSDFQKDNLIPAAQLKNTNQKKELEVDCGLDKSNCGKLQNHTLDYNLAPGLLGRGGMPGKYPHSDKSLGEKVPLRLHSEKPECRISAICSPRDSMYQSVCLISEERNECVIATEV

Binder	% inh [1] [%]	% inh [2] [%]	fold (off-rate vs DLLBII101G08) [3] [fold]	koff [3] [s⁻¹]	fold (off-rate vs DLLBII101G08) [4] [fold]	koff [4] [s⁻¹]
DLLBII102F08 (VHH) VHH: EVQLVESGGGLVQTGDSLRLSCAASGSTFSNYRMGWFRQGPGKEREFVAAIGRNGQNTYYTDSVKGRFTVTRDNAKNMVYLQMNSLKPEDSAVYTCAASLRGWDTTRIDYEYWGQGTQVTVSS	75	85				
DLLBII129H04 (VHH) VHH: EVQLVESRGGLVQAGGSLRLSCAASGRTFSSYAMAWFRQAPGKEREYVAAIRWSGGTAYYADSVQGRFTISRDNAKNTVYLQMNSLKPEDTAVYYCANRAPDTRLEPYLYDHWGQGTQVTVSS			27	0.00025	33	6.8e-05
DLLBII130B04 (VHH) VHH: EVQLVESGGGLVQAGGSLRLSCAASGRTFSSYAMAWFRQAPGKEREYVAAIRWSGGTAYYADSVQGRFTISRDNAKNTVYLQMNSLKPEDTAVYYCANRAPDTRLRPYLYDHWGQGTQVTVSS			17	0.00029	22	8.3e-05
DLLBII130D06 (VHH) VHH: EVQLVESGGGLVQAGGSLRLSCSASGRTFSSYAMAWYRQAPGKEREYVAAIRWSGETAYYADSVQGRFTISRDNAKNTVYLQMNSLKPEDTAVYYCANRAPDTRLEPYLYDHWGQGTQVTVSS			16	0.00031	26	6.9e-05
DLLBII129G10 (VHH) VHH: EVQLVESGGGLVQAGGSLRLSCAASGRTFSSYAMAWYRQAPGKEREYVAAIRWSGGTAYYADSVQSRFTISRDNAKNTVYLQMNSLKPEDTAVYYCANRAPDTRLEPYEYDHWGQGTQVTVSS			26	0.00026	31	7.3e-05
DLLBII129D01 (VHH) VHH: EVQLVESGGGLVQAGGSLRLSCAASGRTFSSYAMAWFRQAPGKEREYVAAIRWSGGTAYYADSVQSRFTITRDNAKNTVYLQMNSLKPEDTAVYYCANRAPDTRLEPYLYDHWGQGTQVTVSS			26	0.00026	26	8.5e-05
DLLBII130A05 (VHH) VHH: EVQLVESGGGLVQAGGSLRLSCAASGRTFSSYAMAWYRQAPGKEREYVAAIRWSGGTAYYADSVQGRFTISRDNAKNTVYLQMNSLKPEDTAVYYCANRAPDTRLGPYLYDHWGQGTQVTVSS			17	0.0003	24	7.5e-05
DLLBII129G09 (VHH) VHH: EVQLVESGGGLVQAGGSLRLSCAASGRTFSSYAMAWYRQAPGKEREYVAAIRWSGETAYYADSVQGRFTISRDNAKNTVYLQMNSLKPEDTAVYYCANRAPDTRLEPYLYDHWGQGTQVTVSS			20	0.00034	26	8.8e-05
DLLBII129H02 (VHH) VHH: EVQLVESGGGLVQAGGSLRLSCAASGRTFSSYAMAWYRQAPGKEREYVAAIRWSGGTAYYADSVQGRFTISRDNAKNTVYLQMNSLKPEDTAVYYCANRAPDTRLRPYEYDYWGQGTQVTVSS			19	0.00034	23	9.9e-05
DLLBII129B02 (VHH) VHH: EVQLVESGGGLVQAGGSLSLSCAASGRTFSSYAMAWYRQAPGKEREYVAAIRWSGGTAYYADSVQGRFTISRDNAKNTVYLQMNSLKPEDTAVYYCANRAPDTRLEPYEYDHWGQGTQVTVSS			26	0.00026	30	7.6e-05
DLLBII130B02 (VHH) VHH: EVQLVESGGGLVQAGGSLRLSCAASGRTFSSYAMAWFRQAPGKEREYVAAIRWSGGTAYYADSVQGRFTISRDNAKNTVYLQMYSLKPEDTAVYYCANRAPDTRLAPYLYDHWGQGTQVTVSS			17	0.00029	23	7.8e-05
DLLBII129E03 (VHH) VHH: EVQLVESGGGLVQAGGSLRLSCAASGRTFSSYAMAWFRQAPGKDREYVAAIRWSGGTAYYADSVQGRFTISRDNAKNTVYLQMNSLKPEDTAVYYCANRAPDTRLAPYLYDYWGQGTQVTVSS			18	0.00036	20	0.00011
DLLBII130E03 (VHH) VHH: EVQLVESGGGLVQAGGSLRLSCAASGRTFSSYAMAWYRQAPGKEREYVAAIRWSGGTAYYADSVQGRFTISRDNAKNTVYLQMNSLKPEDTAVYYCANRAPDTRLEPYEYDHWGQGTQVTVSS			18	0.00027	24	7.5e-05
DLLBII129H05 (VHH) VHH: EVQLVESGGGLVQAGGSLRLSCAASGRTFSSYAMAWYRLAPGKEREYVAAIRWSGGTAYYADSVQGRFTISRDNAKNTVYLQMNSLKPEDTAVYYCANRAPDTRLGPYLYDYWGQGTQVTVSS			19	0.00035	24	9.4e-05
DLLBII129E07 (VHH) VHH: EVQLVESGGGLVQAGGSLRLSCSASGRTFSSYAMAWYRQAPGKEREYVAAIRWSGGTAYYPDSVQGRFTISRDNAKNTVYLQMNSLKPEDTAVYYCANRAPDTRLAPYEYDHWGQGTQVTVSS			24	0.00028	21	0.00011
DLLBII112A03 (VHH) VHH: EVQLVESGGGLVQPGGSLRLSCAASGIRFSINGMGWYRQAPGKQREAVATITRGGIRDYTDSVKGRFTISRDIARNTVYLQMNNLKPEDSAVYYCNIDIYWGRGTQVTVSS	97	72				
DLLBII102G04 (VHH) VHH: EVQLMESGGGLVQPGGSLRLSCAASGFTFSSYAMSWVRQAPGKGLEWVSRITSGGRTTYRDSVKGRFTISRDNSKNTLYLQMNSLKPEDTALYYCAKARGDIDVYTLSDSRGQGTQVTVSS	82	86				
DLLBII47D01 (VHH) VHH: EVQLVESGGGLVQPGGSLRLSCAASGFTFDDYAIGWFRQAPGKEREGVSCISSSGSTYYADSVKGRFTISRDNAKNTVYLQMNSLKPEDTAVYYCAIAGASSWCFPPGYWGQGTQVTVSS		87				
DLLBII112A04 (VHH) VHH: EVQLVESGGGLVQAGGSLRLSCAAFGRTPYGMGWFRQAPGKEREFVAAITSDGSTNYADSVKGRFTISRDNAKNAVSLQMNSLKPEDTAVYYCTAPYYSDFEGTTTEYDYWGQGTQVTVSS	90	75				
